Experimental data from article PMC3491057, “Proliferating Cell Nuclear Antigen (PCNA) Interactions in Solution Studied by NMR” (PLoS ONE, 2012).
No end group written: not given here.

Tests used:
Settings in all cases: both partners purified
[1] = molecular target: Proliferating Cell Nuclear Antigen (PCNA), human (human); assay: NMR titration; 280 µM U-2H,15N-PCNA titrated with a 7.5 mM stock of ING1^22 up to a 7.8-fold molar excess; CSP of H44 fitted to one set of sites; PBS pH 7.0, 35°C
[2] = molecular target: T1, Proliferating Cell Nuclear Antigen (PCNA), human (human, homotrimeric ring; GlySerHis tag remnant before Met1 left out; 2H/15N(/13C) labelled for NMR, natural abundance for ITC); assay: ITC; PCNA (11.2–13.4 µM protomers) in the cell titrated with peptide (117 µM p21^20, 363 p21^12); PBS pH 7.0, 30°C; single set of identical sites
T1 sequence (chain, as listed by the source): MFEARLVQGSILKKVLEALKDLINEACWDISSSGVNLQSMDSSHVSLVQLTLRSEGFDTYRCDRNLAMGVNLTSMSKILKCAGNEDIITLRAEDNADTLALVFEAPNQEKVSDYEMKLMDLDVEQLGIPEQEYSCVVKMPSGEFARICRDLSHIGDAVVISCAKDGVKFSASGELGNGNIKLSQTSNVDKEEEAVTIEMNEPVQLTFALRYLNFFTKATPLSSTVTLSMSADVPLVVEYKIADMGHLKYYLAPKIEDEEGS

[3] = molecular target: T1, Proliferating Cell Nuclear Antigen …; assay: ITC; PCNA (11.2–13.4 µM protomers) in the cell titrated with peptide (117 µM p21^20, 363 p21^12); PBS pH 7.0, 35°C; single set of identical sites

Sequence of Proliferating Cell Nuclear Antigen (PCNA), human (human) (chain, as listed by the source): as above

KD with CSPmax set equal to the CSP of PCNA bound to p21^20 [1] [µM]	Kd [1] [µM]	Kd [2] [µM]	stoichiometry N [2]	Kd [3] [µM]	Binder
12500 ± 500	2000 ± 700				PANGEQLHLVNYVEDTLDSIES (not fully specified) [ING1 PIP-box fragment 4-25 (ING1^22)]
		0.64	1 p21 ligand per PCNA protomer	1.1	KRRQTSMTDFYH (source: lyophilized peptide) [p21 fragment 141-152 (p21^12), shorter PIP-box peptide of the Cyclin-dependent kinase inhibitor 1]
